Measurements from patent US20030198971A1.

Target: c-fos leucine zipper helix fused via (Gly4Ser)3 linker to BLIP-D49A, fused via a similar linker to β-lactamase (tri-partite cis-inhibited β-lactamase fusion) (UniProt P01100)
Test: cell-based or functional assay

| Substance | % plating efficiency on 10 µg/ml ampicillin, 100 µM IPTG [%] | % plating efficiency on 25 µg/ml ampicillin, 100 µM IPTG [%] | % plating efficiency on 50 µg/ml ampicillin, 100 µM IPTG [%] | % plating efficiency on 100 µg/ml ampicillin, 100 µM IPTG [%] | % plating efficiency on 10 µg/ml ampicillin, 100 µM IPTG, c-jun-trx co-expressed as inhibitor [%] | % plating efficiency on 25 µg/ml ampicillin, 100 µM IPTG, c-jun-trx co-expressed as inhibitor [%] | % plating efficiency on 50 µg/ml ampicillin, 100 µM IPTG, c-jun-trx co-expressed as inhibitor [%] | % plating efficiency on 100 µg/ml ampicillin, 100 µM IPTG, c-jun-trx co-expressed as inhibitor [%] | fold reduction of plating efficiency on 100 µg/ml ampicillin by co-expressed c-jun-trx [fold] |
| --- | --- | --- | --- | --- | --- | --- | --- | --- | --- |
| BIP (β-lactamase-S70A) without amino-terminal c-jun helix (from UniProt P62593 24-286) | 100 | 0.7 | < 0.01 | < 0.01 | – | – | – | – | – |
| BLIP-F142A without amino-terminal c-jun helix (from UniProt P35804 37-201) | 100 | 4 | < 0.01 | < 0.01 | – | – | – | – | – |
| c-jun leucine zipper helix fused via (Gly4Ser)3 linker to BIP (β-lactamase-S70A) (from UniProt P05412 276-315; P62593 24-286) | 100 | 100 | 100 | 100 | 100 | 100 | 9 | 0.08 | > 1000 |
| c-jun leucine zipper helix fused via (Gly4Ser)3 linker to BLIP-F142A (from UniProt P05412 276-315; P35804 37-201) | 100 | 100 | 100 | 100 | 100 | 100 | 75 | 0.5 | – |
